Test results reported in patent US20200330553A1 (BRIGHAM AND WOMEN S HOSPITAL, published 2020).

Experiments:
[1] = target: the molecule itself; test: non-reducing western blot, HEK293 cells and EVs
Source text: Next, the intermolecular disulfide bond was examined in the intracellular domain. Since sortilin has only one cysteine (Cys⁷⁸³) in the intracellular domain, the cysteine was expected to form an intermolecular disulfide bond for dimerization in the intracellular domain. Cys⁷⁸³ was replaced by alanine (C783A) in 6×His-sortilin ICD+TMD and FLAG-sortilin Full (FIG. 5A). […] The homodimers of low molecular weight were mainly transported to EVs, while homodimers of high molecular weight and multimers were mainly not transported to EVs (FIG. 5D). […] Since Cys⁷⁸³ was reported to be palmitoylated (22), the connection between palmitoylation and intermolecular disulfide bond was studied by incubating FLAG-sortilin HEK293 cells with an inhibitor of palmitoylation, 2-fluoropalmitic acid (2-FPA) (22), which increased only homodimers of lower molecular size in the cells (FIG. 5E).
Cells, EVs and the supernatant of culture medium were lysed with IP lysis buffer (Thermo Fisher Scientific Inc., Cat#87787) containing protease inhibitor (Roche Diagnostics, Cat#04693159001). Protein concentration was measured using the bicinchoninic acid (BCA) method (Thermo Fisher Scientific Inc., Cat#23225). Laemmli buffer (Boston Bioproduct; non-reducing, Cat#BP-110NR; reducing, Cat#BP-111R) was added to the lysate, and boiled at 95° C. for 5 minutes.

[2] = target: the molecule itself; test: MG-132, anti-FLAG immunoprecipitation, non-reducing western blot
Description: FLAG-sortilin Full and ECD+TMD forms homodimers and multimers. Empty vector was used as control. […] MG-132 increased FLAG-sortilin ICD+TMD in a time and concentration-dependent manner. […] Monomers, homodimers and multimers are abbreviated as MO, D and MU, respectively. IB, immunoblotting.
Cells or EVs were lysed in IP lysis buffer. Anti-FLAG M2 antibody (5 μg) or mouse IgG (5 lig, R&D Systems, Cat#MAB002, Lot# IX2415091) were incubated with Dynabeads with Protein G (Thermo Fisher Scientific Inc., Cat#10004D) by rotation for overnight at 4° C. Cell lysate was incubated for 4 hours at 4° C. under rotating conditions. The bead-antibody-protein complex was washed with PBS 3 times. Then, Laemmli buffer was added to the precipitates for SDS-PAGE.

Protein	binding result [1]	binding result [2]
FLAG-sortilin C783A (receptor, also called C783A mutant) SAPDYKDDDDKGEDEECGRVRDFVAKLANNTHQHVFDDLRGSVSLSWVGDSTGVILVLTTFHVPLVIMTFGQSKLYRSEDYGKNFKDITDLINNTFIRTEFGMAIGPENSGKVVLTAEVSGGSRGGRIFRSSDFAKNFVQTDLPFHPLTQMMYSPQNSDYLLALSTENGLWVSKNFGGKWEEIHKAVCLAKWGSDNTIFFTTYANGSCKADLGALELWRTSDLGKSFKTIGVKIYSFGLGGRFLFASVMADKDTTRRIHVSTDQGDTWSMAQLPSVGQEQFYSILAANDDMVFMHVDEPGDTGFGTIFTSDDRGIVYSKSLDRHLYTTTGGETDFTNVTSLRGVYITSVLSEDNSIQTMITFDQGGRWTHLRKPENSECDATAKNKNECSLHIHASYSISQKLNVPMAPLSEPNAVGIVIAHGSVGDAISVMVPDVYISDDGGYSWTKMLEGPHYYTILDSGGIIVAIEHSSRPINVIKFSTDEGQCWQTYTFTRDPIYFTGLASEPGARSMNISIWGFTESFLTSQWVSYTIDFKDILERNCEEKDYTIWLAHSTDPEDYEDGCILGYKEQFLRLRKSSMCQNGRDYVVTKQPSICLCSLEDFLCDFGYYRPENDSKCVEQPELKGHDLEFCLYGREEHLTTNGYRKIPGDKCQGGVNPVREVKDLKKKCTSNFLSPEKQNSKSNSVPIILAIVGLMLVTVVAGVLIVKKYVAGGRFLVHRYSVLQQHAEANGVDGVDALDTASHTNKSGYHDDSDEDLLE	binds	
FLAG-sortilin ICD+TMD (receptor, written as the form after propeptide cleavage) SAPDYKDDDDKNSVPIILAIVGLMLVTVVAGVLIVKKYVCGGRFLVHRYSVLQQHAEANGVDGVDALDTASHTNKSGYHDDSDEDLLE		binds
